The text below walks through data of US20250034261A1 (TAIZHOU ENZE MEDICAL CENTER GROUP, published 2025).

For assay [1], the target named is T1, antigenic peptide located at positions 209-226 in the heavy chain α3 domain of the HLA-G molecules … (human).
T1 construct: Synthetic peptide, coated on the ELISA plate at 2 ug/ml; also called immunogen
T1 peptide: KTHVTHHPVFDYEATLRC
The assay is described as follows: indirect ELISA, peptide coated at 2 ug/ml; antibody stock 2.8 mg/mL. A general note: ELISA stands for enzyme-linked immunosorbent assay.
Procedure: (§1) The antigen (SEQ No. 19 [sequence]) was diluted with the coating buffer, with the final concentration of 2 ug/ml, 100 ul/well, and placed at 4° C. overnight; washed with the wash buffer twice, blocked with the blocking buffer at 200 ul/well, incubated at 37° C. for 2 hours; then washed once with the wash buffer. The purified antibody was diluted by 2-fold starting from 200-fold (PBS), and the blank control (blank) was PBS, 100 ul/well, and incubated at 37° C. for 1 hour; and then washed 3 times with the wash buffer. The secondary antibody diluted with PBS by 20,000-fold was added, 100 ul/well, and incubated in a 37° C. incubator for 1 hour; taken out and washed 3 times with a wash buffer. Then the color development was performed with a developing solution of 100 ul/well for 5-15 minutes. Then 50 ul of stop solution was added to each well to stop. The absorbance value was measured at dual wavelengths (450, 630), and a chart was drawn for analysis.

The target in assay [2] is T1, antigenic peptide located at positions …. In words: indirect ELISA, peptide coated at 2 ug/ml, antibody in 2-fold dilutions from 200-fold; logistic fit, 150000×A/antibody concentration.
Procedure: as §1
The next assay deals with T2, HLA-G7 standard protein (human, UniProt P17693-7 25-116).
T2 construct: Standard protein used in immunoblotting
In words: immunoblot of HLA-G isoform standard proteins. In general terms: In western blotting, separated proteins are transferred to a membrane and probed.

In the next assay the target is T3, HLA-G4 standard protein (human, UniProt P17693-4 25-246).
T3 construct: Standard protein used in immunoblotting
In words: immunoblot of HLA-G isoform standard proteins.

The target of the next assay is T4, HLA-G3 standard protein (human, UniProt P17693-3 25-154).
T4 construct: Standard protein used in immunoblotting
The assay is described as follows: immunoblot of HLA-G isoform standard proteins.

Procedure for HLA-G3 standard protein: (§2) After electroporating the standard proteins of HLA-G isoforms (HLA-G1, HLA-G2, HLA-G3, HLA-G4, HLA-G5, HLA-G6 and HLA-G7), 5% skimmed milk powder was used to block at room temperature for 4 hours, and washed with 0.2% TBS (Tewen-20 PBS).
Procedure for HLA-G4 standard protein: as §2
Procedure for HLA-G7 standard protein: as §2

B1: monoclonal antibody (YWHG-3) against HLA-G1, -G2, -G5 and HLA-G6 isoforms (antibody, IgG1, V domains shown)
VH: LVQLQQSGGGLVKPGGSLKLSCAASGFTFSDYNMYWVRQTPEKRLEWVATISDGGRSTFYLDSVKGRFTISRDNAKNNLYLQINNLKSEDTAIYYCVRDDYWGQGTTLTVSS
VL: DIMMTQTPLSLPVSLGDQASISCRSSQSLVHSTGNTFLNWYLQKPGQSPKLLIYKVSNRFSGVSDRFSGSGSGTDFTLKIRRVEAEDLGVYFCSQSTHVPWTFGGGTKLEIK
notes: Used biotin-labelled in the HLA-G5 ELISA and FITC-labelled in flow cytometry; also called hybridoma CCTCC NO: 202121
Regarding B1, the “antibody dilution factor corresponding to 1/2 OD value” in assay [1] was 205000 fold dilution. Also, the Ka in assay [2] came out at 1.1e+10 M⁻¹. Moreover, the binding result with HLA-G7 standard protein, with HLA-G4 standard protein and in the assay with HLA-G3 standard protein was “no binding (tested: 1.0 ug/ml)” throughout.
